B1: BD22449: laccase from Cochiobolus heterostrophus, SEQ ID NO: 2, expressed in Aspergillus niger, tested as culture supernatant (protein, listed as Cochliobolus heterostrophus)
chain: MVSSISRVVTALGLLLPTVTSSVVPHKSLAPRTPEVPWKNTGLFSGHSKRQGYETACNHGPESRGCWIDDFNIDTDMDVEWPDTGKTVKYHLTITNTTGAPDGFERPMFLINGQYPGPTITADWGDVLEITVTNGLENNGTGIHWHGLRQLGTNEQDGVNGITECPIAPGDSKLYRFKATQYGTTWYHSHYSVQYGDGIVGPLIIKGPSTANYDIDLGAFPMTDWFHATTFTVNAAAVHANGPPTADNVLVNGSMTSSFGGKYAETILTPGKSHLLRLMNVGINNYLHVGLDGHQFQVISADFTPIEPFYTDSLVLAVGQRYEVIINATEAVGNYWLRVGTGGNCDGPNANAANIRSIFRYAGAPTEDPDTTGSLPSGCYDEDVVPYAKTTVPQEMPEQLSVGFNPNWTSDVTQNQGLVQWLVNGNPMAVDLEVPTLQSVLDGNVTYGNNRHVFAVDEKHQWQYWVIQQNSSNPPLPHPIHLHGHDFYVLAQVENAVWNGDISTLKTDNPIRRDTADLPAGGYLVLAFESDNPGAWLMHCHIPFHVAAGLGVQFLERESEIKAQDGYAEMHRTCANWQSWRYKYHPNGILFPGDSGLRRRN
B2: BD22865: laccase from Fusarium verticillioides, SEQ ID NO: 4, expressed in Aspergillus niger, tested as culture supernatant (protein)
chain: MALIERVWHACVSIVAWLTMWPTSPSTSYQHPLRPNHPHTHIEDPSPGFPIFHPPPGDHEFLCEYPEMTGFVQCSIPENRECWLRHPDGREFNIHTNYENFAPKGIMRHYTLNITESWYNADGQNFTEAKLFNGEYPGPWLEACWGDTFNITVINSMKRNGTSIHWHGIRQNQTMDMDGVNGITQCPIAPGDSFSYIFNTTQYGTSWYHSHYSVQYADGLQGPITIHGPQSAPYDATKRPLLMTDWSHESAFRLLFPGSQFSNKTILLNGAGNVSHYGYTPTLPIPDNYELYFNKTPTDKPTRPKRYLLRLINTSFDSTLVFSIDNHWLQIVTSDFVPIEPYFNTSVLIGIGQRYNVIVEANPLGGDVNEIPDDGNFWIRTWVADACGIAPGGEGYEKTGILRYNHSDKALPSSQPWVNISKACSDETYTSLRPKIPWYIGPAANAQNGERFNVTFDPNAKNTPEFQEEYPVATFGLQRPGQNFRPLQINYSDPVMFHLDEPRDTYPPKWVVIPEDYTEKEWVYFVLTIEGISARTGAHPIHLHGHDFALLQQEENQTYDPSRLNLKLDNPPRRDVVLLPRNGFVVIAFKADNPGIWLMHCHIARHASEGLAMQVLERQGDSNKLFPVGSPNMIEAERVCKVWETWMDGEKDFFEGDSGI
modifications: Fusarium verticillioides

Columns and labels:
[1] = mediator ability to delignify pulp
[2] = pHopt for oxidation of Mediator 71; type: biochemical; details: 1 mM Mediator 71, pH 5-10, room temperature, 20 min
Experimental: Next, the pHopt for the catalysis of the oxidation of Mediator 71 was determined for each laccase. […] of BD22449 or BD22865 culture supernatant isolated as described in Example 2 was incubated with […] Mediator 71 dissolved in Britton-Robinson Buffer to a final concentration of 1 mM at pH 5, 6, 7, 8, 9, or 10. The consumption of oxygen over 20 min at room temperature was determined in an OXYTHERM™ oxygen measurement instrument over time as described above. […] By contrast, the Trametes laccase had no activity on Mediator 71 at pH 7 or above.

[3] = thermotolerance, residual activity on ABTS; type: biochemical; details: 1 hour
Experimental: Laccases BD22449 and BD22865, identified and characterized in Examples 1-5 above were assayed for thermotolerance. Briefly, each laccases was tested at 50° C., 60° C. and 70° C. for 0-60 minutes wherein the residual activity on ABTS was measured. Supernatants from the Aspergillus cultures expressing BD22449 (SEQ ID NO:2) and BD22865 (SEQ ID NO:4) were isolated as described in Example 2. Supernatants were incubated at 50° C., 60° C. or 70° C. for 1 min, 5 min, 10 min, 30 min, and 60 min. For each time point, the oxidation of 2, 2′-azino-bis(3-ethylbenzthiazoline-6-sulfonic acid) (ABTS) by the laccase was measured using an OXYTHERM™ oxygen measurement instrument.

[4] = delignification of wood pulp with laccase and mediator, handsheet brightness; details: with Mediator 71 (50 mg per 1 gram softwood pulp), borate buffer pH 8, 22° C., then NaOH/H2O2 extraction at 75° C.
Experimental: Laccases BD22449 and BD22865, identified and characterized in Examples 1-5 above were assayed for wood pulp delignification with Mediator 71. Briefly, 1 gram of softwood pulp was treated with 3 mL of BD22449 or BD22865 culture supernatant isolated as described in Example 2 with 50 mg of Mediator 71 at 5% consistency in borate buffer pH 8 at 22° C. Laccase/mediator treatment was followed by extraction stage with 2.5% NaOH, 2% H2O2 at 75° C. Handsheets were made out of the treated pulp and brightness increase due to the laccase/mediator treatment was measured using Brightmeter Micro S-5 (Technidyne Corp. New Albany, Ind., USA). Brightness increase obtained with BD22449 and BD22865 with Mediator 71 was −30% (data not shown).

[5] = oxidation of Mediator 71 at pH 8, oxygen electrode; type: biochemical; details: for specific activity, oxidation of Mediator 71: 1 mM Mediator 71, pH 8, room temperature, laccase preparation, not purified protein
Experimental: BD22449 (SEQ ID NO:2), BD22865 (SEQ ID NO:4) and Trametes versicolor laccase (used as a control) were assayed for their ability to oxidize Mediator 71 at pH 8 using oxygen electrode. Briefly, 50 μL of BD22449 or BD22865 culture supernatant isolated as described in Example 2 was incubated with 950 μL Mediator 71 dissolved in Britton-Robinson Buffer to a final concentration of 1 mM at pH 8. The consumption of oxygen was measured at room temperature in an OXYTHERM™ oxygen measurement instrument over time as described above.

[6] = TEMPO oxidation, oxygen consumption (OXYTHERM); type: biochemical; details: 1 mM TEMPO, pH 8, 22° C., culture supernatant
Experimental: Briefly, 50 μL of test culture supernatants isolated as described in Example 2 was incubated with 950 uL TEMPO (1 mM in Britton-Robinson Buffer at pH 8) at 22° C. in an OXYTHERM™ oxygen measurement instrument (Hansatech, England). Oxygen consumption was measured over time according to the manufacturer's instructions.

[7] = HBT oxidation, oxygen consumption; type: biochemical; details: 1 mM HBT, pH 8, 22° C.
Experimental: (§1) The ability of BD22865 (SEQ ID NO: 4) to oxidize mediators with higher redox potentials such as violuric acid and 1-hydroxybenzotriazole (HBT) at pH 8 at room temperature was also tested. Briefly, 50 μL of BD22865 culture supernatant isolated as described in Example 2 was incubated with 950 μL violuric acid (1 mM in Britton-Robinson Buffer at pH 8) or HBT (1 mM in Britton-Robinson Buffer) at pH 8 at 22° C. in an OXYTHERM™ oxygen measurement instrument. Oxygen consumption was measured as described above. SEQ ID NO:4 (BD22865) was able to oxidize both violuric acid and HBT with oxygen consumption rates of 150 nmol/min/mg and 100 nmol/min/mg, respectively under the conditions described herein.

[8] = violuric acid oxidation, oxygen consumption; type: biochemical; details: 1 mM violuric acid, pH 8, 22° C.
Experimental: as §1

Molecule	ability to delignify pulp [1]	efficiency among mediators ([1]; pH 5 and pH 8)	pH of optimum oxidation of Mediator 71 [2]	activity remaining after an hour at 60° C. [3]	brightness increase of handsheets [4] [%]	specific activity, oxidation of Mediator 71 [5] [nmol/min/mg]	TEMPO oxidation, oxygen consumption rate [6]	HBT oxidation, oxygen consumption rate [7] [nmol/min/mg]	violuric acid oxidation, oxygen consumption rate [8] [nmol/min/mg]	specific activity on Mediator 71 compared to BD22449 ([5]; pH 8)
CNC(=O)N(O)c1cccc(C(F)(F)F)c1 [Mediator 71, 3-(3′-Trifluoromethylphenyl)-3-hydroxy-1-methylurea]	capable of delignifying pulp	most efficient	–	–	–	–	–	–	–	–
B1	–	–	8	approximately 100%	−30	677	did not show TEMPO oxidation	–	–	–
B2	–	–	8	about 40%	−30	1350	250 nmol/min/mg	100	150	about twice the specific activity

Source: patent US9677053B2, “Laccases for bio-bleaching” (BASF ENZYMES LLC, priority 2006, dated 2017)
